We go through twelve sequences from the Immune Epitope Database (IEDB).

A value given as a limit tells only on which side of the number the result lay.

One assay addresses HLA-B*51:01. In words: IEDB peptide-MHC binding, purified MHC/competitive/radioactivity; filed as Kd, often an IC50 or EC50 that approximates it; ≥ and ≤ were set here for values at or beyond the usual limits of such assays.
For the next assay, the target named is HLA-B*54:01. Described as above.
The next assay addresses HLA-B*35:01. The assay is described as above.
A further assay addresses HLA-A*68:01. The description is as above. The conditions noted are these: source organism: Vaccinia virus WR.
The next assay has as its target HLA-A*11:01. Described as above. The conditions noted are these: source organism: Vaccinia virus WR.
In assay [1] the target is HLA-B*07:02. Described as above.
Another assay addresses HLA-A*33:01. The assay is described as above. To be noted: source organism: Vaccinia virus WR.
Assay [2] concerns the target HLA-A*02:01. The description is as above. To be noted: source organism: Vaccinia virus WR.
Another assay has as its target HLA-A*02:02. The description is as above. The conditions noted are these: source organism: Vaccinia virus WR.
The target in a further assay is HLA-A*02:03. The assay is described as above. To be noted: source organism: Vaccinia virus WR.
Another assay has as its target HLA-B*53:01. Described as above.
The target of a further assay is HLA-A*02:06. Described as above. The conditions noted are these: source organism: Vaccinia virus WR.
The target of a further assay is HLA-A*31:01. The description is as above. The conditions noted are these: source organism: Vaccinia virus WR.
Another assay addresses HLA-A*03:01. The assay is described as above. To be noted: source organism: Vaccinia virus WR.
A further assay deals with HLA-A*68:02. The description is as above. To be noted: source organism: Vaccinia virus WR.
Another assay addresses HLA-B*40:01. Described as above.
A further assay addresses HLA-B*40:02. The description is as above.
A further assay concerns the target HLA-B*18:01. Described as above.
A further assay deals with HLA-B*44:02. The description is as above.
The target of a further assay is HLA-B*45:01. The description is as above.
For the next assay, the target named is HLA-B*44:03. Described as above.
The target in the next assay is HLA-A*69:01. Nature of the assay: IEDB peptide-MHC binding, purified MHC/direct/fluorescence; filed as Kd, often an IC50 or EC50 that approximates it; ≥ and ≤ were set here for values at or beyond the usual limits of such assays. To be noted: source organism: SARS-CoV1.
In assay [3] the target is HLA-B*07:02. The assay is described as above. To be noted: source organism: SARS-CoV1.
Assay [4] has as its target HLA-A*02:01. The assay is described as above. The conditions noted are these: source organism: SARS-CoV1.
The mark [5] stands for this setting: source organism: Vaccinia virus WR.
Where [6] appears, read: source organism: Triticum aestivum.
[7] abbreviates: source organism: Mammarenavirus choriomeningitidis.
The mark [8] stands for this setting: source organism: SARS coronavirus Tor2.
Where [9] appears, read: source organism: Lassa virus Josiah.

For the sequence ISIIVLFQR, the Kd with HLA-B*51:01 (setting [5]) was no less than 21 µM; with HLA-B*54:01 (setting [5]), 7.68 µM; with HLA-B*35:01 (setting [5]), no less than 43.4 µM; in the assay with HLA-A*68:01, 0.00326 µM; in the assay with HLA-A*11:01 it was 0.93 µM; with HLA-B*07:02 [1] (setting [5]), 2.22 µM. The Kd with HLA-A*33:01 was 0.252 µM; in the assay with HLA-A*02:01 [2] it was 2.4 µM; in the assay with HLA-A*02:02 it was 6.72 µM; in the assay with HLA-A*02:03 it was 9.05 µM; in the assay with HLA-B*53:01 (setting [5]), no less than 21.5 µM; with HLA-A*02:06 it was 9.07 µM. Further, the results for the Kd in the assay with HLA-A*31:01, with HLA-A*03:01 and in the assay with HLA-A*68:02 were 0.00112 µM, 0.689 µM and 8.93 µM, respectively.

Take IPPYCTIAPV: the Kd was no less than 30 µM with HLA-B*51:01 (setting [6]); 0.0905 µM with HLA-B*54:01 (setting [6]); no less than 30.4 µM with HLA-B*35:01 (setting [6]); 0.94 µM with HLA-B*07:02 [1] (setting [6]); no less than 69.9 µM in the assay with HLA-B*53:01 (setting [6]).

For the sequence AEQLMSLAA, the Kd was determined as 1.85 µM with HLA-B*40:01 (setting [7]); 0.00331 µM with HLA-B*40:02 (setting [7]); 3.64 µM with HLA-B*18:01 (setting [7]); 0.214 µM with HLA-B*44:02 (setting [7]); 0.0017 µM with HLA-B*45:01 (setting [7]); 4.48 µM with HLA-B*44:03 (setting [7]).

In the case of QPYPQPQPQY, the Kd in the assay with HLA-B*51:01 (setting [6]) is 10.4 µM; with HLA-B*54:01 (setting [6]), no less than 69.9 µM; with HLA-B*35:01 (setting [6]) it was 0.048 µM; in the assay with HLA-B*07:02 [1] (setting [6]) it was no less than 69.6 µM; with HLA-B*53:01 (setting [6]), 1.62 µM.

On to WPNNCGWKIY, for which the Kd with HLA-B*51:01 (setting [5]) is no less than 69.6 µM; with HLA-B*54:01 (setting [5]), 1.14 µM; with HLA-B*35:01 (setting [5]) it was 0.593 µM; with HLA-B*07:02 [1] (setting [5]), no less than 22.8 µM; with HLA-B*53:01 (setting [5]), 5.57 µM.

MPASWVMRI: the Kd worked out at 0.017 µM with HLA-A*69:01; 0.508 µM with HLA-B*07:02 [3]; 8.19 µM with HLA-A*02:01 [4]; 0.0671 µM in the assay with HLA-B*51:01 (setting [8]); 0.032 µM with HLA-B*54:01 (setting [8]); 0.206 µM with HLA-B*35:01 (setting [8]). For the same sequence, the dissociation constant (Kd) in the assay with HLA-B*53:01 (setting [8]) came to 0.00124 µM.

Regarding REGLLNYSM, the Kd was 1.19 µM with HLA-B*40:01 (setting [7]); 0.0177 µM with HLA-B*40:02 (setting [7]); 0.148 µM with HLA-B*18:01 (setting [7]); 1.18 µM with HLA-B*44:02 (setting [7]); 2.46 µM with HLA-B*45:01 (setting [7]); 1.22 µM in the assay with HLA-B*44:03 (setting [7]).

AELLNNQFGT: the Kd with HLA-B*40:01 (setting [9]) was 2.32 µM; in the assay with HLA-B*40:02 (setting [9]), 1.12 µM; with HLA-B*18:01 (setting [9]), no less than 70.4 µM; with HLA-B*44:02 (setting [9]) it was 3.24 µM; with HLA-B*45:01 (setting [9]), 11.4 µM; in the assay with HLA-B*44:03 (setting [9]), 16.6 µM.

Take EEAALCTFLL: the Kd with HLA-B*40:01 (setting [8]) came to 0.0437 µM; in the assay with HLA-B*40:02 (setting [8]), 0.0177 µM; with HLA-B*18:01 (setting [8]), 0.163 µM; with HLA-B*44:02 (setting [8]) it was 0.0216 µM; in the assay with HLA-B*45:01 (setting [8]), 0.089 µM; in the assay with HLA-B*44:03 (setting [8]) it was 0.0131 µM.

For the sequence LEDFKPRSQM, the Kd was 1.52 µM with HLA-B*40:01 (setting [8]); 0.0217 µM with HLA-B*40:02 (setting [8]); no less than 37.8 µM in the assay with HLA-B*18:01 (setting [8]); 0.622 µM with HLA-B*44:02 (setting [8]); 17.7 µM with HLA-B*45:01 (setting [8]); 1.01 µM in the assay with HLA-B*44:03 (setting [8]).

For TPNYMKLLVY, the Kd with HLA-B*51:01 (setting [5]) is no less than 28.6 µM; with HLA-B*54:01 (setting [5]), 14.6 µM; with HLA-B*35:01 (setting [5]), 0.0481 µM; with HLA-B*07:02 [1] (setting [5]), no less than 47.8 µM; with HLA-B*53:01 (setting [5]) it was 0.952 µM.

For APGSPTNLEF, the equilibrium dissociation constant (Kd) in the assay with HLA-B*51:01 (setting [5]) is no less than 69.6 µM; with HLA-B*54:01 (setting [5]), no less than 39.4 µM; in the assay with HLA-B*35:01 (setting [5]), 0.85 µM; with HLA-B*07:02 [1] (setting [5]), 0.0542 µM; with HLA-B*53:01 (setting [5]), 0.556 µM.
